Columns and labels:
human PD-L1 protein = molecular target: T1, human PD-L1 protein (human, UniProt Q9NZQ7 19-238, limits assumed); assay: binding to human PD-L1 protein; method not stated
T1 construct: also called hPD-L1; huPD-L1

PD-L1 expressed by DC = assay: cell-based or functional assay
Sequence of PD-L1 expressed by DC (Q9NZQ7 whole entry): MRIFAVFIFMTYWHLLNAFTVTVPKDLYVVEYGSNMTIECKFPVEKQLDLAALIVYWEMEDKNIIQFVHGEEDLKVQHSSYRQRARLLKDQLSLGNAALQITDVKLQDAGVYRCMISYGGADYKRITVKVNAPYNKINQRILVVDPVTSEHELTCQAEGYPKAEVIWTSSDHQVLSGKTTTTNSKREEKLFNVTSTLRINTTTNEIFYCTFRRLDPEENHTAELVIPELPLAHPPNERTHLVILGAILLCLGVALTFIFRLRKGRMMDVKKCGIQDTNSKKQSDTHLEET

T1 sequence (Q9NZQ7 19-238 limits assumed): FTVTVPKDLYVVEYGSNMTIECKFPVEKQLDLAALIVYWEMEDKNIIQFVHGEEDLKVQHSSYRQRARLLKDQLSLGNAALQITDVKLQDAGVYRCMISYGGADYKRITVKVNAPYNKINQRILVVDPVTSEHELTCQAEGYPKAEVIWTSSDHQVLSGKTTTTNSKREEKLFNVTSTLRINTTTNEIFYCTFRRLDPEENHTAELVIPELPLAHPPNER

EC50 (human PD-L1 protein): 0.0213 mg/L
secretion of IFN-γ in MLR of CD4+:DC cells, EC50 (PD-L1 expressed by DC): 0.035 mg/L
B1: hu5G11-hIgG1 (antibody, V domains shown)
VH: QITLKESGPTLVKPTQTLTLTCTVSGFSLSTYGVHWIRQPPGKALEWLGVIWRGVTTDYNAAFMSRLTITKDNSKNQVVLTMNNMDPVDTATYYCARLGFYAMDYWGQGTLVTVSS
VL: DIQMTQSPSSLSASVGDRVTITCKASQSVSNDVAWYQQKPGKAPKLLIYYAANRYTGVPDRFSGSGYGTDFTFTISSLQPEDIATYFCQQDYTSPYTFGQGTKLEIKR

From patent WO2020135415A1 (dated 2020)
